Measurements published in paper PMC7049810, “Outer membrane lipoprotein NlpI scaffolds peptidoglycan hydrolases within multi‐enzyme complexes in Escherichia coli” (The EMBO Journal, 2020).
Positions count from the first letter of the chain named. In names and notes the source's numbering stands.

T1: PBP1A, purified (Escherichia coli, UniProt P02918 1-850, NT647 RED-NHS dye on amines (PBP1A was the labelled protein in all MST assays))
T1 construct: Bifunctional peptidoglycan synthase PBP1A of E. coli; also called fl-PBP1A (fluorescently labelled); source: purified as described previously in Born et al (2006)
T1 sequence (looked up): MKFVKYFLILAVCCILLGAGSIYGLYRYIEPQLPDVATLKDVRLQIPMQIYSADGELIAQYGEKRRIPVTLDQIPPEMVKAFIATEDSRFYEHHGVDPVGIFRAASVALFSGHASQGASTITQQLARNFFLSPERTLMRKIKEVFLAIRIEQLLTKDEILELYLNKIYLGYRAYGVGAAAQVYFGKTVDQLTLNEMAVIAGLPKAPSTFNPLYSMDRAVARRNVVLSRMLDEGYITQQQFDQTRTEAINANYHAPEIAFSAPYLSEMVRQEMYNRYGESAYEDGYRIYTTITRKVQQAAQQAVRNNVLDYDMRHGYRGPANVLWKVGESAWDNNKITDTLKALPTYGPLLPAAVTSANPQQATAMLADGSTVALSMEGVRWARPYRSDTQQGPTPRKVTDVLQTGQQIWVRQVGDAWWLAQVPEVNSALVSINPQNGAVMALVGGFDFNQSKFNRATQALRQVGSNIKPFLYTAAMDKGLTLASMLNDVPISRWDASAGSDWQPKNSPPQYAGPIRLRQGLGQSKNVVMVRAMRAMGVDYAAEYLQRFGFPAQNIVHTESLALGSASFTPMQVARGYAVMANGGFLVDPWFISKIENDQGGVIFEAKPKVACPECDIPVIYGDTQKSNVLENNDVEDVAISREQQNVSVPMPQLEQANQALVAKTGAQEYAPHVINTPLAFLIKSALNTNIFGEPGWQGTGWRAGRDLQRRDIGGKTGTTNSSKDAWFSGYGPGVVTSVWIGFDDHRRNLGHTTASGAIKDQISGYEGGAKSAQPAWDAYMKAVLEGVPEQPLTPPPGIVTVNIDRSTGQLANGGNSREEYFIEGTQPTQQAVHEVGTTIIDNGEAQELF

B1: LpoA, purified (natural protein, Escherichia coli, UniProt P45464 27-678, looked up)
chain: CGTHTPDQSTAYMQGTAQADSAFYLQQMQQSSDDTRINWQLLAIRALVKEGKTGQAVELFNQLPQELNDAQRREKTLLAVEIKLAQKDFAGAQNLLAKITPADLEQNQQARYWQAKIDASQGRPSIDLLRALIAQEPLLGAKEKQQNIDATWQALSSMTQEQANTLVINADENILQGWLDLQRVWFDNRNDPDMMKAGIADWQKRYPNNPGAKMLPTQLVNVKAFKPASTNKIALLLPLNGQAAVFGRTIQQGFEAAKNIGTQPVAAQVAAAPAADVAEQPQPQTVDGVASPAQASVSDLTGEQPAAQPVPVSAPATSTAAVSAPANPSAELKIYDTSSQPLSQILSQVQQDGASIVVGPLLKNNVEELLKSNTPLNVLALNQPENIENRVNICYFALSPEDEARDAARHIRDQGKQAPLVLIPRSSLGDRVANAFAQEWQKLGGGTVLQQKFGSTSELRAGVNGGSGIALTGSPITLRATTDSGMTTNNPTLQTTPTDDQFTNNGGRVDAVYIVATPGEIAFIKPMIAMRNGSQSGATLYASSRSAQGTAGPDFRLEMEGLQYSEIPMLAGGNLPLMQQALSAVNNDYSLARMYAMGVDAWSLANHFSQMRQVQGFEINGNTGSLTANPDCVINRNLSWLQYQQGQVVPVS
modifications: where used as the labelled protein in MST: NT647 RED-Maleimide dye on cysteines
notes: called LpoA^sol in the TPase methods; also called LpoA^sol; fl-LpoA; source: purified as described previously in Jean et al (2014)
B2: MepS(C68A), catalytically inactive MepS (enzyme, Escherichia coli, UniProt P0AFV4 27-188, looked up)
chain: CSANNTAKNMHPETRAVGSETSSLQASQDEFENLVRNVDVKSRIMDQYADWKGVRYRLGGSTKKGIDASGFVQRTFREQFGLELPRSTYEQQEMGKSVSRSNLRTGDLVLFRAGSTGRHVGIYIGNNQFVHASTSSGVIISSMNEPYWKKRYNEARRVLSRS
notes: Peptidoglycan endopeptidase MepS of E. coli with C68A; the results call it MepS; source: E. coli BL21 (λDE3), purified (HisTrap HP, Superdex 200)
B3: MepS (enzyme, Escherichia coli, UniProt P0AFV4 27-188, looked up)
chain: B2 chain with A68C
modifications: where used as fl-MepS in MST: NT647 RED-NHS dye on amines
notes: Peptidoglycan endopeptidase MepS of E. coli, from pET21b-MepS-His (Singh et al, 2012); Construct from Singh et al, 2012; The methods list only MepS(C68A) as an unlabelled MST ligand; wild-type MepS is the labelled protein; also called fl-MepS (fluorescently labelled); MepS-His; source: E. coli BL21 (λDE3), purified (HisTrap HP, Superdex 200)
B4: PBP4, native, purified (enzyme, Escherichia coli, UniProt P24228 21-477, looked up)
chain: ANVDEYITQLPAGANLALMVQKVGASAPAIDYHSQQMALPASTQKVITALAALIQLGPDFRFTTTLETKGNVENGVLKGDLVARFGADPTLKRQDIRNMVATLKKSGVNQIDGNVLIDTSIFASHDKAPGWPWNDMTQCFSAPPAAAIVDRNCFSVSLYSAPKPGDMAFIRVASYYPVTMFSQVRTLPRGSAEAQYCELDVVPGDLNRFTLTGCLPQRSEPLPLAFAVQDGASYAGAILKDELKQAGITWSGTLLRQTQVNEPGTVVASKQSAPLHDLLKIMLKKSDNMIADTVFRMIGHARFNVPGTWRAGSDAVRQILRQQAGVDIGNTIIADGSGLSRHNLIAPATMMQVLQYIAQHDNELNFISMLPLAGYDGSLQYRAGLHQAGVDGKVSAKTGSLQGVYNLAGFITTASGQRMAFVQYLSGYAVEPADQRNRRIPLVRFESRLYKDIYQNN
modifications: where used as the labelled protein in MST: NT647 RED-NHS dye on amines
notes: PBP4 (DD-endopeptidase) of E. coli, 'native PBP4' purified after Kishida et al (2006); Untagged ('native'); source: E. coli BL21 (λDE3), purified (HiTrap Q, hydroxyapatite, Superdex 200)
B5: PBP7, purified (enzyme, Escherichia coli, UniProt P0AFI5 26-310, looked up)
chain: KTAAATTASQPEIASGSAMIVDLNTNKVIYSNHPDLVRPIASISKLMTAMVVLDARLPLDEKLKVDISQTPEMKGVYSRVRLNSEISRKDMLLLALMSSENRAAASLAHHYPGGYKAFIKAMNAKAKSLGMNNTRFVEPTGLSVHNVSTARDLTKLLIASKQYPLIGQLSTTREDMATFSNPTYTLPFRNTNHLVYRDNWNIQLTKTGFTNAAGHCLVMRTVINNKPVALVVMDAFGKYTHFADASRLRTWIETGKVMPVPAAALSYKKQKAAQMAAAGQTAQND
modifications: where used as the labelled protein in MST: NT647 RED-NHS dye on amines
notes: PBP7 (DD-endopeptidase) of E. coli; source: E. coli BL21 (λDE3), purified (HisTrap HP, Superdex 200)

Legend:
Details in all cases: both partners purified
[1] = target: T2, pre-formed NlpI-PBP4 complex (Escherichia coli, UniProt P0AFB1 20-294; P24228 21-477); test: MST; fixed ligand concentration assay: labelled MepS, LpoA or PBP1A with fixed unlabelled NlpI, PBP4, PBP7 or pre-formed complexes (NlpI 3 μM with 30 μM PBP4 or PBP7 for fl-MepS and fl-LpoA; PBP4 0.5 μM with NlpI 1 μM for fl-PBP1A); FNorm, or raw fluorescence for LpoA
T2 construct: NlpI of E. coli, soluble version lacking its membrane anchor, as the chain of m1; PBP4 of E. coli, native, as the chain of m5; NlpI 3 μM with excess PBP4 30 μM for assays with labelled MepS or LpoA; PBP4 0.5 μM with NlpI 1 μM for assays with labelled PBP1A; also called PBP4‐NlpI complex; PBP4‐NlpI; source: pre-formed from purified NlpI and purified PBP4, on ice for 10 min

PBP1A, purified = target: T1, PBP1A, purified; test: MST; titration: NT647-labelled protein against a two-fold serial dilution (16 steps) of unlabelled ligand; 25 mM HEPES/NaOH, 150 mM NaCl, 0.05% Triton X-100, pH 7.5; Monolith NT.115; apparent constants; for NlpI with itself: dimer to monomers
[2] = target: T3, NlpI, soluble version lacking its membrane anchor (Escherichia coli, UniProt P0AFB1 20-294, where used as fl-NlpI in MST: NT647 RED-NHS dye on amines); test: as above
T3 construct: Outer membrane lipoprotein NlpI of E. coli, soluble version lacking its membrane anchor; Homodimer by AUC; also called fl-NlpI (fluorescently labelled); His-NlpI; source: E. coli BL21 (λDE3), purified (HisTrap HP, Superdex 200)

LpoA, purified = target: B1; test: as above
PBP4, native, purified = target: B4; test: MST + pull-down; endopeptidases tested against each other, 'a combination of MST and Ni2+-NTA pull-down assays'; all combinations of MepM, MepS, PBP4, PBP7

T3 sequence (P0AFB1 20-294): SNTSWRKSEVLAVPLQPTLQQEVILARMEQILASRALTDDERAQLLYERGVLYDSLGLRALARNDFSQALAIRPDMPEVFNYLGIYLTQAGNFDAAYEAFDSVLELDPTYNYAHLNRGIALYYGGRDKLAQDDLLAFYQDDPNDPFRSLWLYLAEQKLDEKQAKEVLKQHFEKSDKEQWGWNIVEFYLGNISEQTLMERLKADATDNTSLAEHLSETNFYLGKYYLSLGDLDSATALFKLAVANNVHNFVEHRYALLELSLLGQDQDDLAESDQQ
T2 sequence (P0AFB1 20-294, one chain of several): as the sequence (P0AFB1 20-294) above

| Binder | Kd (PBP1A, purified) [nM] | Kd (LpoA, purified) [nM] | also measured |
| --- | --- | --- | --- |
| B1 |  |  | binding result [1]: binds |
| B2 | 91 |  |  |
| B3 |  |  | Kd [2]: 145 nM |
| B4 | 106 | 315 |  |
| B5 | 101 | 217 | EC50 [2]: 422 nM; binding result (PBP4, native, purified): binds |
